The values that follow come from paper PMC3950671.

For data set [1], the target named is T1, PGC7 (Dppa3/Stella) (human, UniProt Q6W0C5 1-159).
T1 sequence: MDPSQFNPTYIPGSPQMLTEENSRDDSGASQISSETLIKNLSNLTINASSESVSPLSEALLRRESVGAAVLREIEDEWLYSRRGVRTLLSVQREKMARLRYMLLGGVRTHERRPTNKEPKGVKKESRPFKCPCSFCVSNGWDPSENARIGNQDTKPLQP
Briefly: EMSA. (In general: A gel shift assay detects complexes by their altered migration in electrophoresis.)

Data set [2] concerns the target T2, PGC7 D9 (human, UniProt Q6W0C5 20-95).
T2 sequence: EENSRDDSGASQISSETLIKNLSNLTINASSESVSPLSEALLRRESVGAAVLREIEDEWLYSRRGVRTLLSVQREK
Briefly: EMSA.

B1: PGC7 motif 50-mer (dsDNA)
DNA 1: GAGTAAGATCATGCCACTGCACTTCAGCCTGGGCACAGAGTGAGGCTGGG
DNA 2: CCCAGCCTCACTCTGTGCCCAGGCTGAAGTGCAGTGGCATGATCTTACTC
B1: the binding result in data set [1] and in data set [2] was “binds” each time.
